{"source": "paper PMC9288159", "about": "“Identification of a guanine-specific pocket in the protein N of SARS-CoV-2”", "molecular_target": "SARS-CoV-2 N protein C-terminal domain (NCTD) (SARS-CoV-2, UniProt P0DTC9 256-364)", "test": "EMSA; […]; binding buffer not stated ([…]", "settings": "protein: recombinant; tags: N-terminal His6-TEV site (pET28a); chain copies: 2; label: 5' IRDye-800CW"}
{"binder": "CGGUUUCGCCG (ssRNA)", "note": "[Oligo-G (SL5a apical region)]", "values": [{"measurement": "Kd", "result": "32 ± 5", "unit": "nM"}]}
